T1: recombinant human RNF43 extracellular domain (human, UniProt Q68DV7 24-197)
T1 construct: extracellular domain; also called huRNF43; human RNF43 ECD
T1 sequence (looked up): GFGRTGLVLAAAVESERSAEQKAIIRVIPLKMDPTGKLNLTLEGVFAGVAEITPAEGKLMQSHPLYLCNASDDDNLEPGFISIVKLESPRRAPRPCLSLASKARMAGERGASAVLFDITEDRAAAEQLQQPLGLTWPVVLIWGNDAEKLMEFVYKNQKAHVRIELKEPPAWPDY

B1: RNF43-126 (antibody, V domains shown)
VH: EVQLQESGPGLVKPSQSLSLTCSVTGFSITSSHRWNWIRKFPGNKLEWMGYINSAGSTNYNPSLKSRISITRDTSKNQFFLQVNSVTTEDTATYYCTRLGLQYRDFDYWGQGVMVTVSS
VL: DIQMTQSPASLSASLGETISIECRASDDIYSNLAWYQQKSGKSPQLLIYAANRLKDGVPSRFSGSGSGTQYSLKISGMQTEDEGDYFCLQASKFPLTFGSGTKLEIK
notes: Rat clone; VH/VL only
B2: RNF43-217 (antibody, V domains shown)
VH: EVQLQESGPGLVKPSQSLSLTCSVTGFSITSSHRWNWIRKFPGNKLEWMGYINSAGSTNYNPSLKSRVSITRDASKNQFFLQVNSVTTEDTATYYCTRLGLQYRDFDYWGQGVMVTVSS
VL: DIQMTQSPASLSASLGETISIECRASDDIYSNLAWYQQKSGKSPQLLIYAANRLKDGVPSRFSGSGSGTQYSLKISGMETEDEGDYFCLQASKFPLTFGSGTKLEIK
notes: Rat clone; VH/VL only
B3: RNF43-107 (antibody, V domains shown)
VH: EVQPVESGGGLVQPGRSLKLSCPASGFTFSNYDMAWVRQAPTKGLEWVASISPSGGRTYYRDSVKGRFTISRDNSKSTLYLQMDSLRSEDTATFYCATHRYYSYFDFWGQGVMVTVSS
VL: DIQMTQSPASLSASLGETISIDCRTSEDIYNNLAWYQQKSGRSPQLLISATNRLQDGVPSRFSGSGSGTQYSLKISGMQPEDEGVYFCLQGSKYPYTFGTGTKLELK
notes: Rat clone; VH/VL only
B4: RNF43-170 (antibody, V domains shown)
VH: EVQLVESGGGLVPPGRSLKLSCVASGFTFNDYYMAWVRQAPTKGLEWVASISYEGRRTYYGDSVKGRFTISRDNAKSTLYLQMNSLRSDDTATYYCATHSNYIFDYWGQGVMVTVSS
VL: DIRMTQSPASLSASLGETVNIECLASEDIYSDFAWFQQKPGQSPLLLIYNGNSLQNGVPSRFSGSGSGTQYSLKINSLQSEDVATYFCQQYNNYPPTFGGGTKLELK
notes: Rat clone; VH/VL only
B5: RNF43-179 (antibody, V domains shown)
VH: EVQLVESGGGLVQPGRSLKLSCVASGFTFNDYYMAWVRQAPKKGLEWVASINYEGSRTYYGDSVKGRFTISRDNAKSTLYLQMNSLRSEDTATYYCATHSNYIFDNWGQGVMVTVSS
VL: DIRMTQSPASLSASLGETVNIECLASEDIYSDFAWFQQKPGQSPLLLIYNGNNLQNGVPSRFSGSGSGTQYSLKINSLQSEDVATYFCQQYNNYPPTFGGGTKLELK
notes: Rat clone; VH/VL only
B6: RNF43-129 (antibody, V domains shown)
VH: EVQLVESGGGLVQPGRSMKLSCAASGFTFSNYDMAWVRQAPKKGLEWVASITYDVSSTYYRDSVKGRFTISRDNAKSTLYLQMDSLRSEDTATYYCTTLDRAGYYYDGYGFYWFANWGQGTLVTVSS
VL: DIQMTQSPSSMSVSLGDTVTITCRASQDVKIYVNWFQQKPGKSPRQMIYRATNLADGVSSRFSGSRSGSDYLFTISSLESEDVADYHCLQYDEYPPTFGSGTKVEIK
notes: Rat clone; VH/VL only
B7: RNF43-156 (antibody, V domains shown)
VH: EVQLKESGPGLVQPSQTLSLTCTVSGFSLTDYSVYWVRQPPGKGLEWMGVMWRGGTTAYNSALKSRLSISRDTSKSQVFLKMNSLQTEDTAIYYCTRGGKYDGTYYYGWYFDFWGPGTMVTVSS
VL: DVVLTQSPATLSVTPGERISLSCRASESVDTYLYWYQQKPNESPRLLIKYASQSISGIPSRFSGSGSGTDFTLSINGVELEDLSIYYCQQGNSLPLTFGSGTKLEIK
notes: Rat clone; VH/VL only
B8: RNF43-224 (antibody, V domains shown)
VH: EVQLKESGPGLVQPSQTLSLTCTVSGFSLSDYSVHWVRQPPGKGLEWMGVMWSGGTTAYNSALKSRLSISRDTSKNQVLLEMNSLQTEDTAIYYCTRGGKYDGTYYYGWYFDFWGPGTMVTVSS
VL: DVVLTQSPATLSVTPGERISLSCRASESVDTYLSWYQQKPNESPRLLIKYASQSISGIPSRFSGSGSGTDFTLSINGVELEDLSIYYCQQGNSLPLTFGSGTKLEIK
notes: Rat clone; VH/VL only
B9: RNF43-180 (antibody, V domains shown)
VH: EAQLVESGGGLVRPGRSLKLTCAASGFTFSHYDMAWVRQAPARGLEWVASIGPGGGLTHYRDSVKGRFTVSRDHAESSLYLQMDSLRSEDTATYYCARHYGWSYFDYWGQGVMVTVSS
VL: DIQMTQSPSFLSASLGDSITITCHASQNIKGWLAWYQQKSGNAPELLIYTASGLRSGVPSRFSGSGSGTDYILTISNLQPEDFATYYCQHYQSFPNTFGAGTKLELR
notes: Rat clone; VH/VL only
B10: RNF43-176 (antibody, V domains shown)
VH: QVQLKESGPGLVQPSQTLSLTCTVSGFSLTSYHVSWVRQPPGKGLEWMGVIWTGGSTAYNSLLKSRLSISRDISKSQVFLKMNSLQTEDTATYYCASQYYGYTSYFDYWGQGVMVTVSS
VL: DIQMTQSPVSLSASPEEIVTITCQASQDIDNWLTWYQQKPGKSPQLLIYSATSLADGIPSRFSGSRSGTQYSLKISRLQIEDTGIYYCLQRYGNPWTFGGGTKLELK
notes: Rat clone; VH/VL only
B11: RNF43-200 (antibody, V domains shown)
VH: QVQLKESGPGLVQPSQTLSLTCTVSGFSLTSYHISWVRQPPGKGLEWMGVIWTGGSTAYNSLLKSRLSISRDISKSQVFLKMNSLQAEDTATYYCAGSYYGYTSYFDYWGQGVMVTVSS
VL: DIQMTQSPASLSASPEEIVTITCQASQDIDNWLAWYQQKPGKSPQLLIYSATRLADGIPSRFSGSRSGIQYSLKINRLQVEDTGIYYCLQRFGNPWTFGGGTKLELK
notes: Rat clone; VH/VL only
B12: RNF43-206 (antibody, V domains shown)
VH: QVQLKESGPGLVQPSQTLSLTCTVSGFSLTSFHISWVRQPPGKGLEWMGIIWTGGSTAYNSLLKSRLSISRDISKSQVFLKMNSLQTEDTATYYCAGSYHGYTSYFDYWGQGVMVTVSS
VL: DIQMTQSPASLSASPEEIVTITCQASQDIDNWLAWYQQQPGKSPQLLIYSATSLADGIPSRFSGSRSGTQYSLKINRLQVEDTGIYYCLQRYSNPWTFGGGTKLELK
notes: Rat clone; VH/VL only
B13: RNF43-168 (antibody, V domains shown)
VH: QVQLKESGPGLVQPSQTLSLTCTVSGFSLNRYHVSWVRQPPGKGLEWMGVVWTGGSTAYNSLLKSRLSISRDISKSQVFLKMISLQTEDTATYYCVSQYYGYTSYFDYWGQGVMVTVSS
VL: DIQMTQSPASLSASPEEIVTVTCQASQDIDNWLTWYQQKPGKSPQLLIYSATSLADGIPSRFSGSRSGTQYSLKIDRLQVEDTGIYYCLQRYGNPWTFGGGTKLELK
notes: Rat clone; VH/VL only
B14: RNF43-221 (antibody, V domains shown)
VH: EVQLVESGGGLVQPGRSLKLSCTASGFTLSDYAMAWVRQAPEKGLEWVATISYDGSRTYYGGSVKGRFTISRDNAENILYLQMDSLRSADTATYYCANSATPHYWGQGVMVTVSS
VL: DVVMTQTPASLSLAIGQPASISCKSSQSLLDTSRKTFLNWILQRPGQSPKRLIYQVSKLYSEVPDRFSGSGSETEFTLKISRVEAEDLGVYYCWQGTHFPDTFGAGTKLELK
notes: Rat clone; VH/VL only
B15: RNF43-117 (antibody, V domains shown)
VH: QVSLKESGPGMLQPSQTLSLTCTFSEFSLSTYGLGVGWIRQPSGKGLEWLANIWWDDDKYYNPSLKNRLTISKDTSNNQAFLKITNVDTADTATYYCARIDGRWHYFDYWGQGDRVIVSS
VL: DIVLTQTPSILSATIGQSVSISCRSTQSLLDSDGNTYLYWFLQRPGQSPQRLIYLVSNLGSGVPNRFSGSGSGTDFTLKISGVEAEDLGFYYCMQGAHTPLTFGSGTKLEIK
notes: Rat clone; VH/VL only
B16: RNF43-152 (antibody, V domains shown)
VH: QVTLKESGPGILQPSQTLSLTCTFSGSSLSTYGMGVGWIRQPSGKGLEWLANIWWDDDKYYNPSLKNRLTISKDTSNNQSFLKIANVDTADTATYYCARIDGTYNYFDYWGQGVMVTVSS
VL: DVVLTQTPSRLSATIGQSVSISCRSSQSLLDSYGNTYLSWFLQRPGQSPQRLIFLVSNLGSGVPNRVSGSGSGTDFTLKISGVEAEDLGVYYCMQTTHDPLTFGSGTKLEIK
notes: Rat clone; VH/VL only

molecular target: T1, recombinant human RNF43 extracellular …; assay: SPR Biacore 8K; antibody captured on Protein A; RNF43 ECD analyte; 25 C
Method: Antibodies were screened for binding to recombinant human RNF43 and ZNRF3 ECDs using a Biacore® 8 k instrument (GE Life Sciences). Briefly, antibodies diluted to 1 μg/ml in 1×HBSP buffer (Cytiva, BR100368) were captured on a Sensor Chip Protein A (GE Life Sciences) using a flow rate of 10 μl/minute and a contact time of 60 seconds. Binding of recombinant human RNF43 and ZNRF3 extracellular domain to the captured antibodies was analyzed at 25° C. using a single cycle kinetics method with a flow rate of 30 μl/minute, a contact time of 180 seconds and a dissociation time of 600 seconds. The concentration of recombinant human RNF43 and ZNRF3 extracellular domain in the single cycle kinetics were 0, 0.8, 4, 20, and 100 nM. Between cycles, the chip was regenerated using 10 mM Glycine HCl pH 1.5 injected for 30 seconds at 30 μl/minute. Data were evaluated using Biacore 8K Evaluation software (GE Life Sciences). Kinetic constants were obtained using a 1:1 binding model with the parameter RI set to zero. Cell surface ligase antibodies with sub-nanomolar affinities may provide advantages in certain instances, for example, in the degradation efficiency which is correlated with the durability of the ternary complex as shown in FIG. 5D.

Question: With B1 as the binder, how does the Kd read?
Answer: The Kd was 1.75 nM.

Question: How did the Kd turn out when B2 was run?
Answer: The Kd was 1.49 nM.

Question: With B3 as the binder, how does the Kd read?
Answer: Its Kd is 0.341 nM.

Question: Which Kd does the source give for B4 here?
Answer: The Kd was 76 nM.

Question: Which Kd does the source give for B5 here?
Answer: The Kd was 31.7 nM.

Question: B6 was tested. Which Kd did it give?
Answer: Its Kd is 1.17 nM.

Question: B7 was tested. Which Kd did it give?
Answer: The Kd was 0.209 nM.

Question: For B8, which Kd is on record?
Answer: The Kd was 0.584 nM.

Question: B9 was tested. Which Kd did it give?
Answer: The Kd was 2.81 nM.

Question: For B10, which Kd is on record?
Answer: Its Kd is 5.71 nM.

Question: How did the Kd turn out when B11 was run?
Answer: The Kd was 0.539 nM.

Question: B12 was tested. Which Kd did it give?
Answer: The Kd was 0.58 nM.

Question: B13 was tested. Which Kd did it give?
Answer: Its Kd is 1.36 nM.

Question: How did the Kd turn out when B14 was run?
Answer: The Kd was 51.6 nM.

Question: With B15 as the binder, how does the Kd read?
Answer: The Kd was 19.8 nM.

Question: With B16 as the binder, how does the Kd read?
Answer: Its Kd is 17.8 nM.
